Results: patent publication US20150203577A1 (Chugai, published 2015)
Substitutions are numbered along the chain they refer to.

T1: mouse FcγRII extracellular domain with C-terminal His tag (mouse, UniProt P08101 30-210)
T1 construct: Made on the basis of NCBI NP-034317.1; also called mFcγRII; mFcgRII
T1 sequence: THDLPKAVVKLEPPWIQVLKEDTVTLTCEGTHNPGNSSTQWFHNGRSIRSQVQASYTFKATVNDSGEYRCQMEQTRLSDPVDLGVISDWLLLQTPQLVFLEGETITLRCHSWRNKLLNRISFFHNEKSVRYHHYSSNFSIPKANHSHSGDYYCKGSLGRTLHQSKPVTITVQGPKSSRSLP

T2: mouse FcγRIII extracellular domain with C-terminal His tag (mouse, UniProt P08508 31-215)
T2 construct: Made on the basis of NCBI NP-034318.2; also called mFcγRIII; mFcgRIII
T2 chain: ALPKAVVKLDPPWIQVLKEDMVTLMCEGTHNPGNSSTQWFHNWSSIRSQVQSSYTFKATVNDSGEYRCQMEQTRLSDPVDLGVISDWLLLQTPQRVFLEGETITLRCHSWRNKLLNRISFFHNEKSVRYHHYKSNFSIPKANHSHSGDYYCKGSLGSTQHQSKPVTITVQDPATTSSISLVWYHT

B1: H237-MB416/MRAL-k0 (antibody, mouse IgG1, kappa)
heavy: QVQLQESGPGLVKPSETLSLTCAVSGHSISHDHAWSWVRQPPGEGLEWIGFISYSGITNYNPSLQGRVTISRDNSKNTLYLQMNSLRAEDTAVYYCARSLARTTAMDYWGEGTLVTVSSAKTTPPSVYPLAPGSAAQTNSMVTLGCLVKGYFPEPVTVTWNSGSLSSGVHTFPAVLQSDLYTLSSSVTVPSSTWPSETVTCNVAHPASSTKVDKKIVPRDCGCKPCICPDYEVEDVFIFPPKPKDVLTITLTPKVTCVVVDISKDDPEVQFSWFVDDVEVHTAQTQPREEQFNSTFRSVSELPIMHQDWLNGKEFKCRVNSAAFPAPIEKTISKTKGRPKAPQVYTIPPPKEQMAKDKVSLTCMITDFFPEDITVEWQWNGQPAENYKNTQPIMDTDGSYFVYSKLNVQKSNWEAGNTFTCSVLHEGLHNHHTEKSLSHSPGK
light: not shown
notes: copies: 2 + 2
B2: H237-MB426/MRAL-k0 (antibody)
heavy: B1 heavy with D230P, Y231A
light: not shown
notes: copies: 2 + 2
B3: H237-MB428/MRAL-k0 (antibody, mouse IgG1, kappa)
heavy: B1 heavy with P229T, D230P, Y231A
light: not shown
notes: copies: 2 + 2
B4: H237-MB429/MRAL-k0 (antibody, mouse IgG1, kappa)
heavy: B1 heavy with P229D, D230P, Y231N
light: not shown
notes: copies: 2 + 2
B5: H237-MB431/MRAL-k0 (antibody, mouse IgG1, kappa)
heavy: B1 heavy with D230P, Y231N
light: not shown
notes: copies: 2 + 2
B6: H237-MB417/MRAL-k0 (antibody, mouse IgG1, kappa)
heavy: B1 heavy with P229Q
light: not shown
notes: copies: 2 + 2
B7: H237-MB419/MRAL-k0 (antibody, mouse IgG1, kappa)
heavy: B1 heavy with P229D, D230N
light: not shown
notes: copies: 2 + 2
B8: H237-MB421/MRAL-k0 (antibody, mouse IgG1, kappa)
heavy: B1 heavy with D230N
light: not shown
notes: copies: 2 + 2
B9: H237-MB435/MRAL-k0 (antibody, mouse IgG1, kappa)
heavy: B1 heavy with P229I, D230T
light: not shown
notes: copies: 2 + 2
B10: H237-MB430/MRAL-k0 (antibody, mouse IgG1, kappa)
heavy: B1 heavy with P229I, D230P, Y231N
light: not shown
notes: copies: 2 + 2
B11: H237-MB433/MRAL-k0 (antibody, mouse IgG1, kappa)
heavy: B1 heavy with P229T, D230P, Y231N
light: not shown
notes: copies: 2 + 2
B12: H237-MB437/MRAL-k0 (antibody, mouse IgG1, kappa)
heavy: B1 heavy with P229Q, D230T
light: not shown
notes: copies: 2 + 2
B13: H237-MB438/MRAL-k0 (antibody, mouse IgG1, kappa)
heavy: B1 heavy with P229T, D230T
light: not shown
notes: copies: 2 + 2
B14: H237-MB427/MRAL-k0 (antibody, mouse IgG1, kappa)
heavy: B1 heavy with P229Q, D230P, Y231A
light: not shown
notes: copies: 2 + 2
B15: H237-MB436/MRAL-k0 (antibody, mouse IgG1, kappa)
heavy: B1 heavy with D230T
light: not shown
notes: copies: 2 + 2
B16: H237-MB423/MRAL-k0 (antibody, mouse IgG1, kappa)
heavy: B1 heavy with P229T, D230N
light: not shown
notes: copies: 2 + 2
B17: H237-MB434/MRAL-k0 (antibody, mouse IgG1, kappa)
heavy: B1 heavy with P229D, D230T
light: not shown
notes: copies: 2 + 2
B18: H237-MB422/MRAL-k0 (antibody, mouse IgG1, kappa)
heavy: B1 heavy with P229Q, D230N
light: not shown
notes: copies: 2 + 2
B19: H237-MB420/MRAL-k0 (antibody, mouse IgG1, kappa)
heavy: B1 heavy with P229I, D230N
light: not shown
notes: copies: 2 + 2
B20: H237-MB424/MRAL-k0 (antibody, mouse IgG1, kappa)
heavy: B1 heavy with P229D, D230P, Y231A
light: not shown
notes: copies: 2 + 2
B21: H237-MB418/MRAL-k0 (antibody, mouse IgG1, kappa)
heavy: B1 heavy with P229T
light: not shown
notes: copies: 2 + 2

Key:
[1] = target: T1, mouse FcγRII extracellular domain with …; experiment: SPR Biacore T200; KD mFcγRIII / KD mFcγRII
[2] = target: T2, mouse FcγRIII extracellular domain with …; experiment: SPR Biacore T200
[3] = target: T1, mouse FcγRII extracellular domain with …; experiment: SPR Biacore T200

Row | Binder | relative I/A (mFcγRII selectivity) (mIgG1 = 1) [1] | relative mFcγRIII-binding activity (mIgG1 = 1) [2] | relative mFcγRII-binding activity (mIgG1 = 1) [3] | I/A (mFcγRII selectivity) [1] | Kd [2] [nM] | Kd [3] [nM]
1 | B1 | 30.2 | 6.3 | 189 |  |  | 
2 | B2 | 25.2 | 4.4 | 112 |  |  | 
3 | B3 | 24.4 | 8.8 | 215 | 32.7 | 32 | 0.977
4 | B4 | 20.3 | 6.8 | 137 |  |  | 
5 | B5 | 26.8 | 4.2 | 113 |  |  | 
6 | B6 | 17.8 | 10.7 | 190 |  |  | 
7 | B7 | 18.6 | 11.6 | 216 | 25 | 24.3 | 0.974
8 | B8 | 19.9 | 9 | 178 |  |  | 
9 | B9 | 16.8 | 8.7 | 146 |  |  | 
10 | B10 | 33 | 6.3 | 207 | 44.3 | 45 | 1.02
11 | B11 | 26.2 | 11.6 | 303 | 35.2 | 24.4 | 0.694
12 | B12 | 17.3 | 11.5 | 198 |  |  | 
13 | B13 | 18 | 15.7 | 283 | 24.1 | 17.9 | 0.742
14 | B14 | 31.1 | 7 | 217 | 41.7 | 40.3 | 0.966
15 | B15 | 18 | 8.4 | 151 |  |  | 
16 | B16 | 15.5 | 9.2 | 143 |  |  | 
17 | B17 | 16.7 | 15.5 | 257 | 22.3 | 18.3 | 0.818
18 | B18 | 16.3 | 8.9 | 144 |  |  | 
19 | B19 | 17.5 | 7.1 | 124 |  |  | 
20 | B20 | 20.4 | 5.1 | 104 |  |  | 
21 | B21 | 13.1 | 20 | 262 | 17.6 | 14.1 | 0.802
